Experimental findings from a protein production outcome set (Wang et al. 2014) are described below.
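Also: failed if final PepcDB status was selected cloned or expressed and not failed if soluble or beyond.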

A short description of the data set: label from the status in PepcDB records.
Regarding “MPKLDRYLLSDFTQSFLATLIVLLVVSVGGVLVDILGNIADGRIPARLLLSQVGLQFVAYLPIILPLALMLGLLLALARLYRDSEMAVITAIGVGPTRMLRPLLMLVVPVVVVIGLCSLWLGPWASRTAEAMLEDANRSVLMAGLESGQFTPLSDGGVVYMQTISADGKGLGKIFLQRQQNDRIDVVTADRGALFFEGKTDRYLHLDDGYRTEGPAGGATLDYRLMKFASSDIALPDRTRLHDANDPEVMWTTQLLSDERPAARAQLHERLAPPLLALAFAMLTLPLSRSAPRQQRYGRIMLAFLAYMVGTNLMIVGTQWIANGKAPAALGLWWLTLPLLAVAVWAYARDGRVRRPRARA”, the protein production result is listed as “failed”.
Under “MPKPGILKSKSMFCVIYRSSKRDQTYLYVEKKDDFSRVPEELMKGFGQPQLAMILPLDGRKKLVNADIEKVKQALTEQGYYLQLPPPPEDLLKQHLSVMGQKTDDTNK” stands “not failed”.
With “MPKSVRAENISRILKRIMKSPVSRVELAEELGLTKTTVGEIAKIFLEKGIVVEEKDSPKGVGRPTKSLKISPNCAYVLGIEVTRDEIAACLIDASMNILAHEAHPLPSQSDREETLNVMYRIIDRAKDMMEKLGSKLSALTVAAPGPIDTERGIIIDPRNFPLSQIPLANLLKEKYGIEVWVENDADMGAVGEKWYTKRDDSFAWILTGKGIGAGIIIDGELYRGENGYAGEIGYTRVFNGNEYVFLEDVCNENVVLKHVLSMGFSSLAEARDSGDVRVKEYFDDIARYFSIGLLNLIHLFGISKIVIGGFFKELGENFLKKIKIEVETHLLYKHSVDMSFSKVQEPVIAFGAAVHALENYLERVTTS”, the protein production entry is reported as “not failed”.
Consider “MPKTSHPFQLSLLALAVSAVLVSGCNSSDNDDDLATEAQVTGLTLEFAGRYSTGQFDESAAEITAFDPASRRAFVVNALSGAVDVLDMSDPVNPAKIDTLTVADIAADAVVNSVAVANGLVAVAVESNPKTDPGYVAVFGAADLQLRDSIQVGAQPDMVTFTPDGQYVLAANEGEPSDDYQVDPEGSISVVDVSNPASLTVRIADFLAFNSQESDLKASGVRIYGPGATVAQDLEPEYITVSADSRAAWVSLQENNALAKLDIDTATVTGILPLGFKDYGVEGQGIDASDDDGVINIQRWPGVVGIYHPDAIDSYQANGETFIVTANEGDARAWGEDDADYWNGDSSRGFVEELRVKHLVHPDGFARRIGDDMPSQLTALAEGALLNPSVFDYCGATAGAANACRDDDQLGRLNISWVQGYRVDENGAPVMFNASGAEDPDGTLLMYDQLYSYGTRSLAIWNEDGELVWDSGDAIEQFLASEDCRLGTARSIPCSDHFNSAHDEGMAFDSRSDAKGPEPEAVTVATFGNKTFAFLGLERMGGILVYDVTDPASPVQVDYLNTRDDWTTVDTASVLETAGDLGVESITVVAADDSPTGEPLLITGNEVSGTTAIYRVKLELTD”, for which the protein production result was “failed”.
Under “MPKVYNSIVVDAPVERVWSRIRNFHDFSWAPSLIKSCKKVGGGGGYSVGARRLLNGEFLDTLIAYSEIERRIMYSMDEGPSPVSSGEIYNYVGNLHLLPVTIDDTTFVEWSGSWESASTEAVEYMNTVYRSLLADLAAEFTSESRRSEWIDQLEHHHHHH” stands “not failed”.
Under “MPLASGQVFAGFTIVRLVGTGGMGEVYLAKHPRLPREDALKVLPISVSADDEFRQRFIREADMAATLWHPHIVGVHDRGEFEGRLWISMDYVDGHDAARLLHDKYPKGMPADDVVEIVTAVGDALDYAHQRQLLHRDVKPANILVTEKHGTKRRIMLTDFGIARRTDDVNGLTSTNITVGSMSYTSPEQLMGQPLDGRADQYSLAATAYRLLTGAPPFSHSNPAVVISHHLNSPPPKLGDTKPALAKLDSVMAKALAKDAKDRFDTCHDFAVALAEANKGDESAAPVTAAPPPVITPPVQTAPPTTPLKAQTLPAPPTPPTPLSPSNPQAPTASQPPVFTSSWAGHDDPSGRQPVAVPAPAPPPPPPPSNFGPPPPAYSPPPRKSGGDRRKLIIAAAAIGAVVLLVGGITLAVTSGGDNDSAGAAATTSETASETPVTTTPKKPGEHAYTIADYIRDNKISETPVHRGDPNTPELTMPTPPGWADAGTRTPAWAYSAIVNDPASPTDPPSVISLISKLDGNVDPEKLLEFAPNELQNLTEWEPIGGVTRSNLSGFPSVQLGGSYLKDGKRRAITQKTVVVDIPSGIYVLQINADSLYRDFGALVDVNKAIDKEATIKP” stands “failed”.
Under “MPLHPTSQDCVVEQSVDALRERERRFRMLADNMSQLAWTASPRGQVQWYNERWYAYTGATLEAMVALGWRSVVHPEHRERVMARLQYCFATGSVWEDTFALRGKDGAFNWFLSRALPMRDAQGHITHWLGTHTDITAQVNAEEALRELNESLELRVAERTRELAKANELLQVEIAERAQAEEVLRHAQKMDAIGQLTGGIAHDFNNMLSGVLGALDMIRLRIGAQRFGEVDRYVDAAVSSANRAAALTQRLLTFARRQSLSVGTVDINCMVRSMEELLRGTVGNHAQLHIELEEGLSAIQTDEHQLENALLNLVINARDAVPVAGLISVRSQALRLVAQEGALAAGDYVRLSVEDNGCGIAQDVIDRVFDPFFTTKPVGQGTGLGLSMVYGFIKQTGGHVQIKSEQGQGTRICLYLPCGAATA” stands “failed”.
As for “MPLLFDSQMTPITNSGWRRHWFEIVYRHDTPPSRNFDLLLMSAILGSVLVVMLDSVLILQAHWKYFLYTLEWLFTLIFTADYLIRLVVVQQRLRYVLSIWGIIDLLSILPTYLSLFMPGTQSLLIVRVLRLLRLFRILKMTHYVEESGELIQALWRSRRKVMLFICTVMTIAMIAGATMYVIEGPQHGFTSIPTGMYWAIVTMTTVGFGDITPQSTLGRFVTSALILIGYSIIAVPTGIYTAELTQGLLRSEEEHRHDMRTCPHCGLQGHDHDARYCRNCGGILPQTLHEPNPATQQ”, the protein production result is listed as “failed”.
For the sequence “MPLSVGQGYFTSSISSEKFNAIKESARLPELSLWEKIKAYFFTTHHAEALECIFNLYHHQELNLTPVQVRGAYIKLRALASQGCKEQFIIESQEHADKLIIKDDNGENILSIEVECHPEAFGLAKEINKSHPKPKNISLGDITRLVFFGDSLSDSLGRMFEKTHHILPSYGQYFGGRFTNGFTWTEFLSSPHFLGKEMLNFAEGGSTSASYSCFNCIGDFVSNTDRQVASYTPSHQDLAIFLLGANDYMTLHKDNVIMVVEQQIDDIEKIISGGVNNVLVMGIPDLSLTPYGKHSDEKRKLKDESIAHNALLKTNVEELKEKYPQHKICYYETADAFKVIMEAASNIGYDTENPYTHHGYVHVPGAKDPQLDICPQYVFNDLVHPTQEVHHCFAIMLESFIAHHYSTE”, the protein production entry was “failed”.
For “MPLTDTALKALKPRDRIYSVADERGLSVEVYPTGGIVWRFRYRLAGRYEKLTLGKYPALSLRNARLKRDEAASLVAMGTSPARQKQLAKVTAADAMTVRDFAERFFREIQSRDRKDSTMPRRYLDKDILPFVGDKPMREVTAEEIRSLIWRKKEQGFDATAGQIRGVLKRLCDYAVTCGLMPTNPVLALPMRHVYKAVSRDRALSPDEIRLFLRAVWASRIRRQFKLALHLILLTMVRKSELLLARWDHVHLDQAQWHIPAEHSKTGKPHIVYLSRQAVVLFEALRVLAGGSALVMPGSGTLTRPFAHNALNHALGKAMQWQGIHAFTIHDLRRTASTWLHEHGWASDVVEKALNHSIGGVRGVYNRAEYADQRRQMLQCWADFIEKQLKTDHLLMVCHTELDGAKPGTP”, the protein production result is given as “failed”.
In the case of “MPLTNHTPEDRVQDIFDHIAPQYDQMNSVISLGTHHWWRQRVMQAMTLHAGDFALDVCCGTGDWTIALAQAVGPAGHVVGFDFSGVMLQHATTKVRQAQLDDRITLRQGDAMQLPYPDNYFNVVTIGFGLRNVPDATQVLREMARVVKPGGQVVCLETSQPTNPLVHAGWQVYFGHVVPLMGRLAHHYQAYNYLQSSTHHFVSAKELSRLFTAAGLTQVHYDLFNLGAAAVHWGRKPYLEHHHHHH”, the protein production result is “not failed”.
In the case of “MPNAIFFYRIQRWLYLHHIPFLPKLIQLLIFLIYNTKITADSKIGKGSYFVCKGISTVLIPGTEIGENCVLGLRFSTVRKFPYKNVPKIGNNVFIGPNVVICGPVEIGDNCIVAANSFVDKSLRGG”, the protein production result is on record as “failed”.
Regarding “MPNIGIIGAGIGGLQLGLQLRQHDIPVTIYTDKTANQIAGGRLLNSVAHHGPTLERERLLGVHFWPVEEYGYSCHHHYLGGDQPMSFRGDFTNWSSAIDYRLYLPKLSEAFQERGGNLEVRMLQADDIEPIAARHDLIVVAAGRGAFASMFPRRPDLSPYDTPQRALSVGIYRGIAESDPRGVTISTSPGHGDLLEIPMYTEDGFLTALLFENIPGGDLEILAKMSYDDDPQAFNRTVLDKLARHHPQTFERVDHTQFGLHRSIDLLQGALVPTVREDYAKLPGGKFALAIGDVHTVVDPLLGQGANSASHSAWVTGEAIVEDLGFDEMFCTRVARRRADVVLGAAQWTNLMLAPPAEHVLRLFEAMNANKAVADEFTHNFDHPDRQWQILATAERTNAFLARHGIESAAALAV”, the protein production result is on record as “failed”.
Take “MPNNHLTAAAPAQGREAIASPMERFSQAMVAWAEKWFPDAYVFVVVACAVVALGAILHGGDPLAVSKAFGEGFWSIIPLTMQMAMVAITGYVLALSPPVARLLRALARVPSTPRGAVVFIGTLSILLSLVNWGLSLIFSGLLVREMARRNDLRLDYRAAGAAGYLGLGCGFTLGMSSSAAQLQATPASIPASLMPITGVIGFSETILTWQNLVVVILVTVVSGLVCYFTAPSPERSLTAQDLGVDLTEPEAQAAQRQRPGDYLEFSPWLTVAVVGLASGWLYLTFRSGNPFITMSQLNTYNFVFLLLGLLLHWRPRSFLESFGRAMPSIGGVMLQFPFYGGIGYVLTKVANVQGHTLSDAIAHWFVSLAHDSSVFSILVSIYSAFLGFFIPSAGGKWVIEAPYIMDAANQIQAHLGWTVMVYNIAETLPNFINPFWMLPLLGILRLKSKDLVGYTAMQFLVHFPIVVAAGAILMHTFSYVPPVIPGQ”: the protein production entry is on record as “failed”.
Consider “MPNRKASRNAYYFFVQEKIPELRRRGLPVARVADAIPYCSSDWALLREEEKEKYAEMAREWRAAQGKDPGPSEKQKPVFT”, for which the protein production result is “not failed”.
For “MPNTIRLHRVLSAPPERVYRAFLDPLALAKWLPPEGFVCKVLEHDARVGGAYKMEFLAFASGQKHAFGGRYLELVPGERIRYTDRFDDAGLPGDMITTITLAPLSCGADLSIVQEGIPDAIPPENCYLGWQQSLKQLAALVEPDMPGLEHHHHHH”, the protein production result is “not failed”.
As to “MPPCYQHEEEKFFLNAKGQKEALPSIWDSPTKQLSVVVPSYNEEKRLPVMMDEALNYLEKRQKHDCTFTYEVIVVDDGSEDQTSKVALKYCQKYGSDKVRVITLVRNRGKGGAVRMGVFSSRGEKILMADADGATKFPDVEKLEKGLSDLQPWPEQMAIACGSRAHLEKESIAQRSYFRTFLMYGFHFLVWFLCVKGIRDTQCGFKLLTREAAARTFSSLHIERWAFDVELLYIAQCLQIPIAEVAVNWTEIEGSKLVPFWSWLQMGKDLLFIRLRYLTGAWRLKQTRKAS”, the protein production result is on record as “failed”.
For “MPPFLPLQVIKGVGPKRAVILAEAGIRSIADLYDCFPRRYLDRTTIKKIGALRDGETVTVVGSVTGTRFEGGGRGGSRFKAQITDGSGVLELTWFRGVHYFSKTIRSGELVAAHGRVTFFGRTPGMQHPDFDKLGGDDESGDGQRDDELYKTGAIIPIYPTTEAMKQAGLNSAALRRIVHRAFREHPLRITEYLSPEIIAANNLMPIGEAYRQLHFPDSAEQLERARYRMKWSELFFAQLFFALRRTEERRHLTSVRFERSGEKTASLHERLPFTMTSAQKQAVREIYHDLKSGRQMNRLLQGDVGSGKTLVAQFAMTLAVDNGLQAAFMAPTEILAFQHYAGLKNSLEPLGIRVALLTGRQKKKEREEKLARLERGEIDIAVGTHAIIEAGVQFRRLGLVIIDEQHRFGVLQRKALQEKAENPHVLLMTATPIPRTLTMGIYGDLDVSIIAEMPAGRKPIQTRLCCEAEKPELYRLLRKQIAEGRQAYIVYPLVEESEKIDLKAATESYEQLRREVFPELRLGLIHGQLPAAEKEAVMAEFRSGRLDILVGTTVIEVGVDVPNATIMVIEHAERFGISQLHQLRGRVGRGEHASSCFLVYTKLTGDAKDRLQAMAATGDGFRLSEIDLQIRGAGNMLGREQSGAASGLRIADLLTDGDIMRAARAAAFELIRRDETLTHPENALIRDYYMTHFRKRISLADVG”, the protein production entry is given as “failed”.
